{"source": "patent US20040018971A1", "about": "(published 2004)", "binders": {"B1": {"name": "HER2/neu peptide, position 402, 9 amino acids (peptide)", "peptide": "TLEEITGYL", "notes": "Synthetic peptide; also called HER2/neu 402-410"}, "B2": {"name": "HER2/neu peptide, position 1196, 9 amino acids (peptide)", "peptide": "YLTPQGGAA", "notes": "Synthetic peptide; also called HER2/neu 1196-1204"}, "B3": {"name": "HER2/neu peptide, position 665, 10 amino acids (peptide)", "peptide": "VVLGVVFGIL", "notes": "Synthetic peptide; also called HER2/neu 665-674"}, "B4": {"name": "HER2/neu peptide, position 42, 9 amino acids (peptide)", "peptide": "HLDMLRHLY", "notes": "Synthetic peptide; also called Her2/neu.42"}, "B5": {"name": "HER2/neu peptide, position 915, 9 amino acids (peptide)", "peptide": "LMTFGAKPY", "notes": "Synthetic peptide; also called Her2/neu.915 (9-mer)"}, "B6": {"name": "HER2/neu peptide, position 666, 9 amino acids (peptide)", "peptide": "VLGVVFGIL", "notes": "Synthetic peptide; also called HER2/neu 666-674"}, "B7": {"name": "HER2/neu peptide, position 1172, 10 amino acids (peptide)", "peptide": "TLSPGKNGVV", "notes": "Synthetic peptide; also called HER2/neu 1172-1181"}, "B8": {"name": "HER2/neu peptide, position 726, 10 amino acids (peptide)", "peptide": "LGSGAFGTVY", "notes": "Synthetic peptide; also called Her2/neu.726 (10-mer)"}, "B9": {"name": "Her2/neu.1073.F1I9 (peptide)", "peptide": "FPLAPSEGI", "notes": "9-mer analog of the HER2/neu peptide starting at position 1073"}, "B10": {"name": "HER2/neu peptide, position 360, 10 amino acids (peptide)", "peptide": "NIQEFAGCKK", "notes": "Synthetic peptide; also called Her2/neu.360 (10-mer)"}, "B11": {"name": "HER2/neu peptide, position 725, 10 amino acids (peptide)", "peptide": "VLGSGAFGTV", "notes": "Synthetic peptide; also called HER2/neu 725-734"}}, "key": {"[1]": {"molecular_target": "T1, HLA-A*0301 (human)", "T1 construct": "also called HLA-A3", "test": "competitive inhibition of 125I-labelled standard peptide binding to purified HLA-A*0301, gel filtration; standard 941.12 [..] (11 nM)"}, "[2]": {"molecular_target": "HLA-B*0702 (human)", "test": "competition vs 125I-labelled probe peptide, purified HLA, gel filtration"}, "[3]": {"molecular_target": "HLA-B*3501 (human)", "test": "competition vs 125I-labelled probe peptide, purified HLA, gel filtration"}, "[4]": {"molecular_target": "HLA-B*5101 (human)", "test": "competition vs 125I-labelled probe peptide, purified HLA, gel filtration"}, "[5]": {"molecular_target": "HLA-B*5301 (human)", "test": "competition vs 125I-labelled probe peptide, purified HLA, gel filtration"}, "[6]": {"molecular_target": "HLA-B*5401 (human)", "test": "competition vs 125I-labelled probe peptide, purified HLA, gel filtration"}, "[7]": {"molecular_target": "T2, HLA-A*0201 (human)", "T2 construct": "also called HLA-A2.1", "test": "inhibition of 125I-labelled probe peptide binding to purified HLA, gel filtration"}, "[8]": {"molecular_target": "T3, HLA-A*0101 (purified HLA class I molecule) (human)", "T3 construct": "also called HLA-A1", "test": "competition with 125I-labelled standard peptide on purified HLA-A*0101, gel filtration"}, "[9]": {"molecular_target": "T4, HLA-A*0301 (human)", "T4 construct": "also called HLA-A3", "test": "inhibition of 125I-labelled probe peptide binding to purified HLA-A*0301, gel filtration; ratio to standard peptide 941.12 [..] (11 nM)"}}, "data": [{"binder": "LALTLIDTNR (Synthetic peptide)", "note": "[HER2/neu peptide, position 179, 10 amino acids]", "values": [{"measurement": "relative binding ratio (IC50 of standard peptide / IC50 of test peptide)", "setting": "[1]", "value": -0.0002, "unit": "ratio"}]}, {"binder": "FPSETDGYI", "note": "[Her2/neu.1120.F1I9]", "values": [{"measurement": "IC50", "setting": "[2]", "value": 220, "unit": "nM"}, {"measurement": "IC50", "setting": "[3]", "value": 655, "unit": "nM"}, {"measurement": "IC50", "setting": "[4]", "value": 31, "unit": "nM"}, {"measurement": "IC50", "setting": "[5]", "value": 37, "unit": "nM"}, {"measurement": "IC50", "setting": "[6]", "value": 156, "unit": "nM"}]}, {"binder": "FPSETDGYV", "note": "[Her2/neu.1120.F1]", "values": [{"measurement": "IC50", "setting": "[2]", "value": 204, "unit": "nM"}, {"measurement": "IC50", "setting": "[3]", "value": 809, "unit": "nM"}, {"measurement": "IC50", "setting": "[4]", "value": 32, "unit": "nM"}, {"measurement": "IC50", "setting": "[5]", "value": 517, "unit": "nM"}, {"measurement": "IC50", "setting": "[6]", "value": 26, "unit": "nM"}]}, {"binder": "B1", "values": [{"measurement": "relative binding ratio", "setting": "[7]", "value": "0.0018 ratio (IC50 of standard peptide / IC50 of test peptide)"}]}, {"binder": "RLLDIDETEY", "note": "[HER2/neu peptide, position 868, 10 amino acids]", "values": [{"measurement": "relative binding ratio (IC50 of standard peptide / IC50 of test peptide)", "setting": "[8]", "value": 1.3, "unit": "ratio"}]}, {"binder": "B2", "values": [{"measurement": "relative binding ratio", "setting": "[7]", "value": "0.0001 ratio (IC50 of standard peptide / IC50 of test peptide)"}]}, {"binder": "PSGVKPDLSY", "note": "[HER2/neu peptide, position 601, 10 amino acids]", "values": [{"measurement": "relative binding ratio (IC50 of standard peptide / IC50 of test peptide)", "setting": "[8]", "value": 0.001, "unit": "ratio"}]}, {"binder": "ETLEEITGYLY (also called Her2/neu.401)", "note": "[HER2/neu peptide, position 401, 11 amino acids]", "values": [{"measurement": "relative binding ratio (IC50 of standard peptide / IC50 of test peptide)", "setting": "[8]", "value": 0.44, "unit": "ratio"}]}, {"binder": "B3", "values": [{"measurement": "relative binding ratio", "setting": "[7]", "value": "0.0027 ratio (IC50 of standard peptide / IC50 of test peptide)"}]}, {"binder": "LCYQDTILWK (Synthetic peptide)", "note": "[HER2/neu peptide, position 161, 10 amino acids]", "values": [{"measurement": "relative binding ratio (IC50 of standard peptide / IC50 of test peptide)", "setting": "[1]", "value": 0.0081, "unit": "ratio"}]}, {"binder": "ILIKRRQQK (T0001 prints T at residue 673 (FGTLIK))", "note": "[HER2/neu peptide, position 673, 9 amino acids]", "values": [{"measurement": "relative binding ratio (IC50 of standard peptide / IC50 of test peptide)", "setting": "[1]", "value": 0.38, "unit": "ratio"}]}, {"binder": "VVQGNLELTY", "note": "[HER2/neu peptide, position 55, 10 amino acids]", "values": [{"measurement": "relative binding ratio (IC50 of standard peptide / IC50 of test peptide)", "setting": "[8]", "value": 0.018, "unit": "ratio"}]}, {"binder": "B4", "values": [{"measurement": "relative binding ratio (IC50 of standard peptide / IC50 of test peptide)", "setting": "[1]", "value": 0.037, "unit": "ratio"}]}, {"binder": "B5", "values": [{"measurement": "relative binding ratio (IC50 of standard peptide / IC50 of test peptide)", "setting": "[9]", "value": 0.0002}]}, {"binder": "B6", "values": [{"measurement": "relative binding ratio", "setting": "[7]", "value": "0.0005 ratio (IC50 of standard peptide / IC50 of test peptide)"}]}, {"binder": "MALESILRRR (Synthetic peptide)", "note": "[HER2/neu peptide, position 889, 10 amino acids]", "values": [{"measurement": "relative binding ratio (IC50 of standard peptide / IC50 of test peptide)", "setting": "[9]", "value": 0.0011}]}, {"binder": "LLNWCMQIAK (Synthetic peptide)", "note": "[HER2/neu peptide, position 822, 10 amino acids]", "values": [{"measurement": "relative binding ratio (IC50 of standard peptide / IC50 of test peptide)", "setting": "[9]", "value": 0.14}]}, {"binder": "ETHLDMLRHLY (also called Her2/neu.40)", "note": "[HER2/neu peptide, position 40, 11 amino acids]", "values": [{"measurement": "relative binding ratio (IC50 of standard peptide / IC50 of test peptide)", "setting": "[8]", "value": 0.28, "unit": "ratio"}]}, {"binder": "HSCVDLDDK (Synthetic peptide)", "note": "[HER2/neu peptide, position 632, 9 amino acids]", "values": [{"measurement": "relative binding ratio (IC50 of standard peptide / IC50 of test peptide)", "setting": "[1]", "value": -0.0002, "unit": "ratio"}]}, {"binder": "B7", "values": [{"measurement": "relative binding ratio", "setting": "[7]", "value": "0.0001 ratio (IC50 of standard peptide / IC50 of test peptide)"}]}, {"binder": "B8", "values": [{"measurement": "relative binding ratio (IC50 of standard peptide / IC50 of test peptide)", "setting": "[9]", "value": 0.0003}]}, {"binder": "YLSTDVGSCT (Synthetic peptide)", "note": "[HER2/neu peptide, position 303, 10 amino acids]", "values": [{"measurement": "relative binding ratio", "setting": "[7]", "value": "0.0002 ratio (IC50 of standard peptide / IC50 of test peptide)"}]}, {"binder": "B9", "values": [{"measurement": "IC50", "setting": "[2]", "value": 100, "unit": "nM"}, {"measurement": "IC50", "setting": "[3]", "value": 554, "unit": "nM"}, {"measurement": "IC50", "setting": "[4]", "value": 204, "unit": "nM"}, {"measurement": "IC50", "setting": "[5]", "value": 239, "unit": "nM"}, {"measurement": "IC50", "setting": "[6]", "value": 5.9, "unit": "nM"}]}, {"binder": "YISAWPDSL (Synthetic peptide)", "note": "[HER2/neu peptide, position 411, 9 amino acids]", "values": [{"measurement": "relative binding ratio", "setting": "[7]", "value": "0.0003 ratio (IC50 of standard peptide / IC50 of test peptide)"}]}, {"binder": "YVMAGVGSPY", "note": "[HER2/neu peptide, position 772, 10 amino acids]", "values": [{"measurement": "relative binding ratio (IC50 of standard peptide / IC50 of test peptide)", "setting": "[8]", "value": 1.1, "unit": "ratio"}]}, {"binder": "B10", "values": [{"measurement": "relative binding ratio (IC50 of standard peptide / IC50 of test peptide)", "setting": "[9]", "value": 0.0003}]}, {"binder": "B11", "values": [{"measurement": "relative binding ratio", "setting": "[7]", "value": "0.0007 ratio (IC50 of standard peptide / IC50 of test peptide)"}]}, {"binder": "FPTHDPSPI", "note": "[Her2/neu.1101.F1I9]", "values": [{"measurement": "IC50", "setting": "[2]", "value": 108, "unit": "nM"}, {"measurement": "IC50", "setting": "[3]", "value": 600, "unit": "nM"}, {"measurement": "IC50", "setting": "[4]", "value": 56, "unit": "nM"}, {"measurement": "IC50", "setting": "[5]", "value": 274, "unit": "nM"}, {"measurement": "IC50", "setting": "[6]", "value": 50, "unit": "nM"}]}]}
